# Molecular target: CD33 (UniProt P20138)
# Assay: cell-based or functional assay
# Sequence of CD33 (P20138 18-364 limits assumed): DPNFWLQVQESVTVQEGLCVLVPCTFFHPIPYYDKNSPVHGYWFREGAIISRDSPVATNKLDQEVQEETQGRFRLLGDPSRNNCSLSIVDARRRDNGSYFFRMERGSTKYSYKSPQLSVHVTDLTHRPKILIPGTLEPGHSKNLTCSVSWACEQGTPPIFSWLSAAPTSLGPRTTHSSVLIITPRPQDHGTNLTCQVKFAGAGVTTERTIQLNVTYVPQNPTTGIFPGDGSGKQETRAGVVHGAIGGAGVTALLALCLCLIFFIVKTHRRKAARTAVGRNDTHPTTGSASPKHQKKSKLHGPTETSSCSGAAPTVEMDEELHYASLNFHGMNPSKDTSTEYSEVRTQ
# Sequence of HuM195-dCK conjugate (B2R8V6 whole entry): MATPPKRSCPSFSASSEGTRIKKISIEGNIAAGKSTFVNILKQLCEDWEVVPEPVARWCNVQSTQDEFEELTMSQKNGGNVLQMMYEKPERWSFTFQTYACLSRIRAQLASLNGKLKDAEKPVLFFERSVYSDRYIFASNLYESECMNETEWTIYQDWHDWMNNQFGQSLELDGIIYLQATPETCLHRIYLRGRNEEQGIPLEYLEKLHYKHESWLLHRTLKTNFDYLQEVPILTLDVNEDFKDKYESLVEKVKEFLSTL
substance,measurement,value
HuM195-dCK conjugate,"apoptosis assay on NB4 cells, conjugate with AraC 250 nM",65%
same,"cell death of HL60 cells (Annexin V and propidium iodide staining), conjugate in combination with AraC 1 µM",70%

# From patent publication US20050008648A1
